The results in this text go back to patent publication US20220196651A1 (ALX ONCOLOGY, published 2022).

For this experiment, the target named is Drug A. The experiment can be described thus: cell-based or functional assay.

Substitutions are numbered along the chain they refer to.

B1: anti-SIRP multimer F (antibody, mouse IgG1, N297A, V domains shown)
VH: DVQLVESGGGVVRPGESLRLSCAASGFTFSSYAMSWVRQAPGKGLEWLAGISAGGSDTYYIDSVKGRFTISRDNPKNSLYLQMSSLTAEDTAVYYCARETWNHLFDYWGLGTLVTVSS
VL: ALTQPASVSANPGETVKITCSGGDYYSTYYAWYQQKSPGSAPVTVIHSDDKRPSDIPSRFSGSASGSAATLIITGVRVEDEAVYYCGGYDGRTYINTFGAGTTLTVLG
As for B1, the “molar ratio to Drug A at which interference was mitigated, SPRCA” value is ≥ 1.25 x molar ratio to Drug A.

B2: anti-SIRP multimer D (antibody, V domains shown)
VH: B1 VH with Y32N, I61P, D62A, P75S, S78T, S84N, S85T
VL: ALTQPASVSANPGETVKIACSGGDYYSYYYGWYQQKAPGSALVTVIYSDDKRPSDIPSRFSGSASGSTATLTITGVRAEDEAVYYCGGYDYSTYANAFGAGTTLTVL
As to B2, the “molar ratio to Drug A (130 nM) at which no agglutination was observed, IAT tube assay” value is 2.5 x molar ratio to Drug A and the “molar ratio to Drug A (130 nM) at which no interference was observed, SPRCA” value was ≥ 0.63 x molar ratio to Drug A.

B3: anti-SIRP multimer G (antibody, mouse IgG2a)
heavy: DVQLVESGGGVVRPGESLRLSCAASGFTFSSNAMSWVRQAPGKGLEWLAGISAGGSDTYYPASVKGRFTISRDNSKNTLYLQMNTLTAEDTAVYYCARETWNHLFDYWGLGTLVTVSSAKTTAPSVYPLAPVCGDTTGSSVTLGCLVKGYFPEPVTLTWNSGSLSSGVHTFPAVLQSDLYTLSSSVTVTSSTWPSQSITCNVAHPASSTKVDKKIEPRGPTIKPCPPCKCPAPNLLGGPSVFIFPPKIKDVLMISLSPIVTCVVVDVSEDDPDVQISWFVNNVEVHTAQTQTHREDYNSTLRVVSALPIQHQDWMSGKEFKCKVNNKDLPAPIERTISKPKGSVRAPQVYVLPPPEEEMTKKQVTLTCMVTDFMPEDIYVEWTNNGKTELNYKNTEPVLDSDGSYFMYSKLRVEKKNWVERNSYSCSVVHEGLHNHHTTKSFSRTPG
light: ALTQPASVSANPGETVKIACSGGDYYSYYYGWYQQKAPGSALVTVIYSDDKRPSDIPSRFSGSASGSTATLTITGVRAEDEAVYYCGGYDYSTYANAFGAGTTLTVLGQPKSSPSVTLFPPSSEELETNKATLVCTITDFYPGVVTVDWKVDGTPVTQGMETTQPSKQSNNKYMASSYLTLTARAWERHSSYSCQVTHEGHTVEKSLSRADCS
On to B3, for which the “molar excess of Multimer G that mitigated interference, gel card, Drug A 1000 µg/mL” value was 4 fold molar excess relative to Drug A; the “molar excess of Multimer G that mitigated interference, gel card, Drug A 2000 µg/mL” value is 6 fold molar excess relative to Drug A; the “molar excess of Multimer G that mitigated interference, gel card, Drug A between 0.1 and 100 (printed ng/mL)” value was 3 fold molar excess relative to Drug A.

B4: anti-SIRP multimer E (antibody, mouse IgG1, N297A)
heavy: DVQLVESGGGVVRPGESLRLSCAASGFTFSSNAMSWVRQAPGKGLEWLAGISAGGSDTYYPASVKGRFTISRDNSKNTLYLQMNTLTAEDTAVYYCARETWNHLFDYWGLGTLVTVSSAKTTPPSVYPLAPGSAAQTNSMVTLGCLVKGYFPEPVTVTWNSGSLSSGVHTFPAVLQSDLYTLSSSVTVPSSTWPSETVTCNVAHPASSTKVDKKIVPRDCGCKPCICTVPEVSSVFIFPPKPKDVLTITLTPKVTCVVVDISKDDPEVQFSWFVDDVEVHTAQTQPREEQFASTFRSVSELPIMHQDWLNGKEFKCRVNSAAFPAPIEKTISKTKGRPKAPQVYTIPPPKEQMAKDKVSLTCMITDFFPEDITVEWQWNGQPAENYKNTQPIMDTDGSYFIYSKLNVQKSNWEAGNTFTCSVLHEGLHNHHTEKSLSHSPG
light: B3 light
As for B4, the “molar ratio to Drug A at which interference was mitigated, SPRCA” value is ≥ 1.25 x molar ratio to Drug A.
